Source: the supplement of paper PMC9233669
Variants at the floor of the assay were thinned out.

Legend:
biotinyl-Val-oxazolone = test: self-aminoacylation, catalytic enhancement (BVO) (fold over background); higher = more active; k-Seq, kA / k0A0; sequences stand for … in GGGAAUGGAUCCACAUCUACGAAUUC…UUCACUGCAGACUUGACGAAGCUG
Procedure, shortened: (§1)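 Mutagenized RNA pools with a 21-nt variable region (0.43 μM) were reacted with each biotinyl-aminoacyl-oxazolone at 2–1250 μM for 90 minutes at room temperature, in 50 μL HEPES/NaCl/KCl/MgCl2/CaCl2 buffer containing 5% acetonitrile at pH 6.9–7.0. RNA captured on streptavidin was quantified by triplicate qPCR and by Illumina sequencing. The fraction reacted for each sequence was fit to a pseudo-first-order model with bootstrapping, and catalytic enhancement is the median kA divided by the uncatalyzed rate, taken as the low-activity peak of a bimodal Gaussian fit.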

biotinyl-Phe-oxazolone = test: self-aminoacylation, catalytic enhancement (BFO) (fold over background); higher = more active; k-Seq, kA / k0A0; sequences stand for … in GGGAAUGGAUCCACAUCUACGAAUUC…UUCACUGCAGACUUGACGAAGCUG
Procedure, shortened: as §1

biotinyl-Met-oxazolone = test: self-aminoacylation, catalytic enhancement (BMO) (fold over background); higher = more active; k-Seq, kA / k0A0; sequences stand for … in GGGAAUGGAUCCACAUCUACGAAUUC…UUCACUGCAGACUUGACGAAGCUG
Procedure, shortened: as §1

biotinyl-Ile-oxazolone = test: self-aminoacylation, catalytic enhancement (BIO) (fold over background); higher = more active; k-Seq, kA / k0A0; sequences stand for … in GGGAAUGGAUCCACAUCUACGAAUUC…UUCACUGCAGACUUGACGAAGCUG
Procedure, shortened: as §1

biotinyl-Leu-oxazolone = test: self-aminoacylation, catalytic enhancement (BLO) (fold over background); higher = more active; k-Seq, kA / k0A0; sequences stand for … in GGGAAUGGAUCCACAUCUACGAAUUC…UUCACUGCAGACUUGACGAAGCUG
Procedure, shortened: as §1

biotinyl-Trp-oxazolone = test: self-aminoacylation, catalytic enhancement (BWO) (fold over background); higher = more active; k-Seq, kA / k0A0; sequences stand for … in GGGAAUGGAUCCACAUCUACGAAUUC…UUCACUGCAGACUUGACGAAGCUG
Procedure, shortened: as §1

Sequence	self-aminoacylation (biotinyl-Val-oxazolone)	self-aminoacylation (biotinyl-Phe-oxazolone)	self-aminoacylation (biotinyl-Met-oxazolone)	self-aminoacylation (biotinyl-Ile-oxazolone)	self-aminoacylation (biotinyl-Leu-oxazolone)	self-aminoacylation (biotinyl-Trp-oxazolone)
AUUCACCUAGGUCAUCGCGGG [Fam2.2 aminoacylation ribozyme variant]	2.47	10.7	3.25	2.97	4.05	2.25
AUUCACCUAGGUCAUCGGAGG [Fam2.2 aminoacylation ribozyme variant]	1.03	0.759	0.898	0.829	0.991	0.621
AUUCACCUAGGUCAUCGGAUA [Fam2.2 aminoacylation ribozyme variant]	1.2	0.865	0.754	0.894	0.877	0.615
AUUCACCUAGGUCAUCGGCUU [Fam2.2 aminoacylation ribozyme variant]	2.02	6.3	2.26	2.1	2.3	3.27
AUUCACCUAGGUCAUCGGGAU [Fam2.2 aminoacylation ribozyme variant]	3.4	18.7	6.11	3.59	9.22	5.12
AUUCACCUAGGUCAUCGGGCA [Fam2.2 aminoacylation ribozyme variant]	3.24	3.27	3.67	3.5	5.57	2.81
AUUCACCUAGGUCAUCGGGCG [Fam2.2 aminoacylation ribozyme variant]	4.82	13.8	7.58	4.76	10.3	5.66
AUUCACCUAGGUCAUCGGGCU [Fam2.2 aminoacylation ribozyme variant]	4.55	37.6	8.6	5.03	12.4	6.09
AUUCACCUAGGUCAUCGGGGG [Fam2.2 aminoacylation ribozyme variant]	4.28	32.6	6.96	4.62	9.91	5.49
AUUCACCUAGGUCAUCGGUGG [Fam2.2 aminoacylation ribozyme variant]	1.52	4.26	1.97	1.5	1.85	1.81
AUUCACCUAGGUCAUCGGUUA [Fam2.2 aminoacylation ribozyme variant]	1.17	1.09	1.28	1.11	1.27	1.35
AUUCACCUAGGUCAUCGUGUU [Fam2.2 aminoacylation ribozyme variant]	0.73	0.729	0.887	0.899	0.905	1.62
AUUCACCUAGGUCAUCUUGUG [Fam2.2 aminoacylation ribozyme variant]	1.04	1.37	1.13	0.835	1.18	0.594
AUUCACCUAGGUCAUGAGGUG [Fam2.2 aminoacylation ribozyme variant]	1.81	3.32	2.41	1.94	3.15	1.75
AUUCACCUAGGUCAUGGCGUG [Fam2.2 aminoacylation ribozyme variant]	5.9	59.8	9.82	5.83	13.2	8.17
AUUCACCUAGGUCAUGGGGCG [Fam2.2 aminoacylation ribozyme variant]	2.27	1.37	2.3	2.18	3.14	2.15
AUUCACCUAGGUCAUGGGGUC [Fam2.2 aminoacylation ribozyme variant]	1.4	1.36	1.39	1.32	1.2	1
AUUCACCUAGGUCAUGGGGUG [Fam2.2 aminoacylation ribozyme variant]	3.56	39.9	5.76	3.7	7.33	5.27
AUUCACCUAGGUCAUGGGGUU [Fam2.2 aminoacylation ribozyme variant]	1.58	0.983	1.68	1.5	1.52	1.51
AUUCACCUAGGUCAUUGAGUG [Fam2.2 aminoacylation ribozyme variant]	2.3	12.3	3.53	2.6	4.17	3.89
AUUCACCUAGGUCCUAGGGUG [Fam2.2 aminoacylation ribozyme variant]	1.75	4.72	2.55	2.06	4.26	3.15
AUUCACCUAGGUCCUCGAGUG [Fam2.2 aminoacylation ribozyme variant]	1.38	3.5	1.36	1.26	2.12	1.18
AUUCACCUAGGUCCUCGGGCG [Fam2.2 aminoacylation ribozyme variant]	2.7	35.3	4.65	3.37	4.27	3.17
AUUCACCUAGGUCGUCGAGUG [Fam2.2 aminoacylation ribozyme variant]	0.878	0.746	0.743	0.661	0.851	0.529
AUUCACCUAGGUCGUCGCGUG [Fam2.2 aminoacylation ribozyme variant]	3.84	39	5.72	3.52	7.92	5.27
AUUCACCUAGGUCUUAGGGUG [Fam2.2 aminoacylation ribozyme variant]	2.85	32.2	5.1	3.08	7.06	4.24
